Results published in article PMC5864733.

Molecular target: CsrA (Escherichia coli EPEC O127:H6 E2348/69, UniProt B7UHB4 1-61)
Experiment: EMSA; no CesT
Conditions: protein: recombinant; tags: GST tag, cleaved by PreScission (pGEX-6P-1); chain copies: 2; label: none (ethidium bromide stain); single strand, heated to 80 C and slowly cooled

Sequence of CsrA (B7UHB4 whole entry): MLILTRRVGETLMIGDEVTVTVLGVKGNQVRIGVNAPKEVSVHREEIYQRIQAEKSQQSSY

B1: nleA 5'UTR RNA (structured_RNA)
RNA: CACUAAUAAUAUCAAUGGAUUGAUAUUAUUAAUG
binding result: binds
